Assay results taken from PMC6128766 (Nature structural & molecular biology, 2018).

Target: the molecule itself
Experiment: cryo-EM structure

B1: TRPV3(Y564A) (natural protein, mouse, UniProt Q8K424 1-791, looked up)
chain: MNAHSKEMAPLMGKRTTAPGGNPVVLTEKRPADLTPTKKSAHFFLEIEGFEPNPTVTKTSPPIFSKPMDSNIRQCLSGNCDDMDSPQSPQDDVTETPSNPNSPSANLAKEEQRQKKKRLKKRIFAAVSEGCVEELRELLQDLQDLCRRRRGLDVPDFLMHKLTASDTGKTCLMKALLNINPNTKEIVRILLAFAEENDILDRFINAEYTEEAYEGQTALNIAIERRQGDITAVLIAAGADVNAHAKGVFFNPKYQHEGFYFGETPLALAACTNQPEIVQLLMENEQTDITSQDSRGNNILHALVTVAEDFKTQNDFVKRMYDMILLRSGNWELETMRNNDGLTPLQLAAKMGKAEILKYILSREIKEKPLRSLSRKFTDWAYGPVSSSLYDLTNVDTTTDNSVLEIIVYNTNIDNRHEMLTLEPLHTLLHTKWKKFAKYMFFLSFCFYFFYNITLTLVSYYRPREDEDLPHPLALTHKMSWLQLLGRMFVLIWATCISVKEGIAIFLLRPSDLQSILSDAWFHFVFFVQAVLVILSVFLYLFAYKEYLACLVLAMALGWANMLAYTRGFQSMGMYSVMIQKVILHDVLKFLFVYILFLLGFGVALASLIEKCSKDKKDCSSYGSFSDAVLELFKLTIGLGDLNIQQNSTYPILFLFLLITYVILTFVLLLNMLIALMGETVENVSKESERIWRLQRARTILEFEKMLPEWLRSRFRMGELCKVADEDFRLCLRINEVKWTEWKTHVSFLNEDPGPIRRTADLNKIQDSSRSNSKTTLYAFDELDEFPETSV
- binding result: binds
